From article PMC4338332 (RNA, 2015)

Target: T1, Non-POU domain-containing octamer-binding protein (NONO), endogenous, from HeLa nuclear extract (human (endogenous in HeLa), UniProt Q15233 1-471)
T1 sequence: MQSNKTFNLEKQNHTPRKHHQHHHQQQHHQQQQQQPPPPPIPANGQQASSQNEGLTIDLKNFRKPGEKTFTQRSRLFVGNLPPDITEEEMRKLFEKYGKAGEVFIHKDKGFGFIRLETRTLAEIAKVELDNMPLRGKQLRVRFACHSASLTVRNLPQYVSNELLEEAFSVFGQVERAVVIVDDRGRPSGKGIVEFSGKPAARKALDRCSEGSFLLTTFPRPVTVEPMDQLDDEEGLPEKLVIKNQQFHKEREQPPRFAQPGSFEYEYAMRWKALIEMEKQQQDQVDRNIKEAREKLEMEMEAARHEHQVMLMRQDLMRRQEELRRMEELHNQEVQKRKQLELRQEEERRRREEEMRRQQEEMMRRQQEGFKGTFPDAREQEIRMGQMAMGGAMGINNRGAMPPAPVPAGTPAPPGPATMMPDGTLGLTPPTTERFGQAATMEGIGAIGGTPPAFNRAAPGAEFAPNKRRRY
Assay: affinity purification with mass spectrometry

B1: Splicing factor, proline- and glutamine-rich (SFPQ), endogenous, from HeLa nuclear extract (natural protein)
chain: MSRDRFRSRGGGGGGFHRRGGGGGRGGLHDFRSPPPGMGLNQNRGPMGPGPGQSGPKPPIPPPPPHQQQQQPPPQQPPPQQPPPHQPPPHPQPHQQQQPPPPPQDSSKPVVAQGPGPAPGVGSAPPASSSAPPATPPTSGAPPGSGPGPTPTPPPAVTSAPPGAPPPTPPSSGVPTTPPQAGGPPPPPAAVPGPGPGPKQGPGPGGPKGGKMPGGPKPGGGPGLSTPGGHPKPPHRGGGEPRGGRQHHPPYHQQHHQGPPPGGPGGRSEEKISDSEGFKANLSLLRRPGEKTYTQRCRLFVGNLPADITEDEFKRLFAKYGEPGEVFINKGKGFGFIKLESRALAEIAKAELDDTPMRGRQLRVRFATHAAALSVRNLSPYVSNELLEEAFSQFGPIERAVVIVDDRGRSTGKGIVEFASKPAARKAFERCSEGVFLLTTTPRPVIVEPLEQLDDEDGLPEKLAQKNPMYQKERETPPRFAQHGTFEYEYSQRWKSLDEMEKQQREQVEKNMKDAKDKLESEMEDAYHEHQANLLRQDLMRRQEELRRMEELHNQEMQKRKEMQLRQEEERRRREEEMMIRQREMEEQMRRQREESYSRMGYMDPRERDMRMGGGGAMNMGDPYGSGGQKFPPLGGGGGIGYEANPGVPPATMSGSMMGSDMRTERFGQGGAGPVGGQGPRGMGPGTPAGYGRGREEYEGPNKKPRF
In the case of B1, the “stoichiometry N” value is reported as 1.
